Reference: article PMC3087838 (Nature structural & molecular biology, 2011)
Where two headings read alike, the source gives them in different places.

T1: RXRα-VDR heterodimer complex (full length His-hVDR with full length Flag-hRXRα) (human, UniProt P11473 1-427; P19793 1-462)
T1 sequence (looked up) 1: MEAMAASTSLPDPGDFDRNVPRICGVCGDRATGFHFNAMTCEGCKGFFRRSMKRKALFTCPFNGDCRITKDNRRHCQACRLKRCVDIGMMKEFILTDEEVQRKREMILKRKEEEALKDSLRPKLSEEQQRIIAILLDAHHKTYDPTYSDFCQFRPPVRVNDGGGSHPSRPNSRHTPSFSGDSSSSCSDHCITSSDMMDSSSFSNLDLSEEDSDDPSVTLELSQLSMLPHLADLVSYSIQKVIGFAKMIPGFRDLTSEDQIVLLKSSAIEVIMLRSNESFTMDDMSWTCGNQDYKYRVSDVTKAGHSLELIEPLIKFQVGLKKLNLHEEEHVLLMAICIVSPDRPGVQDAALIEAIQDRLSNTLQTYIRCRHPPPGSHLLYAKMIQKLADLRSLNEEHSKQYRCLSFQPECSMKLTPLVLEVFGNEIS
T1 sequence (looked up) 2: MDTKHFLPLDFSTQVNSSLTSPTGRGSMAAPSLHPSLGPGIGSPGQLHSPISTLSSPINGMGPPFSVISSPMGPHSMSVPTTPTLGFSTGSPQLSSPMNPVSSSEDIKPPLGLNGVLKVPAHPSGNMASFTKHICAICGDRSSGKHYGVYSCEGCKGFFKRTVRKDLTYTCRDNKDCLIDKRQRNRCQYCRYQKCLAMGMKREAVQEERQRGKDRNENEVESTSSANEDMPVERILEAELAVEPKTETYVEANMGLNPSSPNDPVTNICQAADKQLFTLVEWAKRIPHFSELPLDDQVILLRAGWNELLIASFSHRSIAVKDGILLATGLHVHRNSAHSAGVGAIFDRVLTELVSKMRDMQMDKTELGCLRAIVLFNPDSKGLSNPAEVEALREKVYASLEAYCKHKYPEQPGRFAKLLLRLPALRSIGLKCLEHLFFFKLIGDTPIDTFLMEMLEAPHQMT

T2: Full length WT Flag-hRXRα (human retinoid X receptor alpha) (human, UniProt P19793 1-462)
T2 sequence (looked up): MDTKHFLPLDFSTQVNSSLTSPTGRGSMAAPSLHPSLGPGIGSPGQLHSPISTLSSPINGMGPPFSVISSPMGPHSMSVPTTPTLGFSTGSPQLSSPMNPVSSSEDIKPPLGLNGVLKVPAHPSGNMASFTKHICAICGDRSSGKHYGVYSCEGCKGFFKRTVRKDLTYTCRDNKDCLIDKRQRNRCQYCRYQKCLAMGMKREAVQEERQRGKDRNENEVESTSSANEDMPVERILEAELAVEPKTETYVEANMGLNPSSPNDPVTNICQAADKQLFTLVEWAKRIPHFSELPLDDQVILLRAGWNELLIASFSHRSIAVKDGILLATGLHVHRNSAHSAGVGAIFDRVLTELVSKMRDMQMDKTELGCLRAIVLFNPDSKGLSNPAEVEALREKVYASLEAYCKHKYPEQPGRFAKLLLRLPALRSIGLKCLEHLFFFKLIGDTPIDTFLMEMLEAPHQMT

B1: Full length WT His-hVDR (human vitamin D receptor) (receptor, UniProt P11473 1-427, looked up)
chain: MEAMAASTSLPDPGDFDRNVPRICGVCGDRATGFHFNAMTCEGCKGFFRRSMKRKALFTCPFNGDCRITKDNRRHCQACRLKRCVDIGMMKEFILTDEEVQRKREMILKRKEEEALKDSLRPKLSEEQQRIIAILLDAHHKTYDPTYSDFCQFRPPVRVNDGGGSHPSRPNSRHTPSFSGDSSSSCSDHCITSSDMMDSSSFSNLDLSEEDSDDPSVTLELSQLSMLPHLADLVSYSIQKVIGFAKMIPGFRDLTSEDQIVLLKSSAIEVIMLRSNESFTMDDMSWTCGNQDYKYRVSDVTKAGHSLELIEPLIKFQVGLKKLNLHEEEHVLLMAICIVSPDRPGVQDAALIEAIQDRLSNTLQTYIRCRHPPPGSHLLYAKMIQKLADLRSLNEEHSKQYRCLSFQPECSMKLTPLVLEVFGNEIS

Experiments:
Test in all cases: HDX-MS
[1] = molecular target: B1
[2] = molecular target: T1, RXRα-VDR heterodimer complex (full …)
[3] = molecular target: T2, Full length WT Flag-hRXRα (human …)
[4] = molecular target: T2, Full length WT Flag-hRXRα (human …); remark: listed apart in the source

| binding result [1] | binding result [2] | binding result [3] | binding result [4] | Binder |
| --- | --- | --- | --- | --- |
| binds | binds | binds | – | His-hSRC1-RID (627-786) variant 1, receptor interacting domain of human steroid receptor coactivator 1 (domain or fragment, UniProt Q15788-1 627-786, looked up) SQTSHKLVQLLTTTAEQQLRHADIDTSCKDVLSCTGTSNSASANSSGGSCPSSHSSLTERHKILHRLLQEGSPSDITTLSVEPDKKDSASTSVSVTGQVQGNSSIKLELDASKKKESKDHQLLRYLLDKDEKDLRSTPNLSLDDVKVKVEKKEQMDPCNT |
| – | – | – | binds | His-hVDR LBD (residues 118-425, Δ[165-215]) (domain or fragment, human, UniProt P11473 118-425, looked up) DSLRPKLSEEQQRIIAILLDAHHKTYDPTYSDFCQFRPPVRVNDGGGSVTLELSQLSMLPHLADLVSYSIQKVIGFAKMIPGFRDLTSEDQIVLLKSSAIEVIMLRSNESFTMDDMSWTCGNQDYKYRVSDVTKAGHSLELIEPLIKFQVGLKKLNLHEEEHVLLMAICIVSPDRPGVQDAALIEAIQDRLSNTLQTYIRCRHPPPGSHLLYAKMIQKLADLRSLNEEHSKQYRCLSFQPECSMKLTPLVLEVFGNE |
| – | – | – | binds | B1 |
